Data taken from the NTF2 design screens of Basanta et al. (2020).

Test: protease stability score; higher = more stable; yeast display proteolysis, trypsin and chymotrypsin;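 note: relative to predicted unfolded state with 0 unfolded-like and 1 meaning tenfold more protease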

| Sequence | protease stability score |
| --- | --- |
| DDEEKRIQEASREMLEIMRTGDEERLKQMADPNARWHTKIDGQEVHRHGREEFIKIFRWVMERLGIDHVELHSIHIYNGQNDIDSRFHFDGRNHRILFIWVVYNGRLHHVRIEIQ | 1.58 |
| DDEEKRYRLFYKIALTMFETGDWQILHELADPHVKVRVGDKDLHGREELTHFWKELVERYPNMKIRLDDLSLQGEKIHIEGTWHFDGKELTTHIDLIMVDGKLKETRYEHK | 1.4 |
| DDEEKSRDIAIEIFVHLLRTGDEHEMSKLADPHVKVNINGRELVGMEIFIEWIRRWSKEIRLHDVKVKDVRTQGDKIEVDGREDGIQGDKRKEVETSFFFRKYNGKWFIERMEFR | 1.96 |
| DDEEKYFRMAVHHIIHLLHTGDETDSEHQADPDVRITVGDKRFHGREDFRDWVRELTDRYKNMTFRLKSVDVQGDFIILHGLLHFNGKNVEFDVFSWKFNGKWFMHHIIVR | 1.72 |
| DDEERANRELLELLIHSYRTGDWKLWHELVDPHVRTSLHQGEFEMKSIGRHYVRDIMTYMGVDHVELRHLEIQGDKLIMHLELDVNGRRLHVILFLSKINGVWILREEEIRFI | 1.3 |
| DDEERDLKRAYELWVHNMLTGNWRMLNYLADPNTKIEFENHKSHGRESLHELLKRLGVDHMHIELEDMHFVGDKIILHTREEHRVGDKEIRTEVHIDARKINGRWRLQSVHFR | 0.97 |
| DDEERDVLRIMRIVLKLWKTGNEEKYEHLLDPDVRMEVDGRNLHGRETVSHWLHRLREEIRIDDYKIETVRAQGNKSILHVRTDGIINGQEVRLTEEITIIVINGRIQTFSIHRH | 0.628 |
| DDEEREVHKATEDWFKLVKTGNEEVRHELLDPHTRLIIGDKEFHGREELLRWERELGYKFKTFIITDIKVQGNKAIIHGVDVGTINGVERHLDVRLLILKVNGKWITREIEVR | 1.62 |
| DDEERHASTIFELLMEVILTGDEDTFEELADPNTRFDINGREFHGREYMSHLKTQYDHWYLKHMHITSSEVQGNFAILNSETDYELEYGDKRVSFYERWHLFVLKVDGRWIIHSFRIN | 0.985 |
| DDEERIASFVIKMWLHSYLTGDENLLREFLDPNVKVRNEVNGRDWTHHGREALLWLLEFLGVKHVEHVRLHDLLVVNGRATSREIYHGKIGDKRTTFHFTLYIIRIDGVVKKFEIELE | 1.3 |
| DDEERILHRIKELFEAAMHTGDWRLEFQQADPHTRVEIGDKEIHGMENIFDMLEDFWRELGIDQIDVEVRDEDSHIQGDKIILHVDITLRYNGVQERFKSTIILQKIDGRWHKKTEHRG | 1.16 |
| DDEERIWRELLEDLLKALKTGDEHRIQDLLDPHVRLEIGDKEFHGREEVTEWFRRLMEKIKGAVFHIHIHDFRIQGDKLLADTRLIIHIGDKHEESETEMIVLKVNGRWLIDEIRVK | 2.59 |
| DDEERIWRELLEIWIKLMETGDEDTTRKNADPHAKHILVIGDFTLVLHGWDLTVKFLKELSERMGINHIHVHRVEAINGQVHIDSRLRVGDKDVHTHIRIKIVDGVLKETNLHIK | 1.62 |
| DDEERLIKHLAERWMKDLHTGNEDSLEEMADPNWRLRQIVNGQEVRDIGREKMIEVIREIEKKLGIDRIELHVHKVEIQGDKAHLNTEIRYNGQSSLHEIRLTIINGRLHSVTIHVK | 0.85 |
| DDEERQAREFLKNYIRSLLTGDEDTLDELVDPNARWHVGDYHMIGRDSVSFLTKHLRIKHIEIKDIEIYGNKAIVLVHMHGIIDGKERDTDIIIFVEKINGQWKVREHRIS | 1.15 |
| DDEERWTEEMYRIMIHIEKTGDEHTFSRLADPNVRLIVGDKHFHGRETFIEQLRKLIEHIRVEKIEIRHVELVGEKVILVMKRLSRIDGREVELEVHVEIVIVNGRYKMIRIEIR | 1.43 |
| DDEHEHYRRQTKLVEDLFLTGDWDKIFRLLDPHVRMEINGRQHIGRERVTTEFKQHIEDLGIDHVEIKRSHVQGEKMHLDGVIEFNGRKQSSELIIVIIDGVWHSIVVQLH | 1.09 |
| DDEHHDAVRVIEEFVTSVLTGNWEILKELLDPNVKFEIDGREIWGREFVNREIEEIRIRSRMEVRSVRFQGEKMEVDTEYNVDLNIGDKRFHYRRSTRVILEKYDGRWRIQSFHFE | 0.284 |
| DDEIRFLFKIAHLWMRSHSTGDERVLEHLMDPHVRIDFNGVELHGWKDMLTEWKEIRIIIEHVEIDHYDVQGDKMELNGRISGTFHFNGRTRTTDFRSELRFTVINGKLHSVEIHYR | 1.41 |
| DDEKARQQVREFIRAMETGDEDSMVQQLDENAHVHIGDHVWRGREQARNAFKEFVKQFDRIEVKRVEYRNGDVVIDAVANVNGVRVRIIFKIHIHNGRIKNLRIEYRDEEEKKQLDG | 2.29 |
| DDEKEEVERLARLFIHYVLTGDEDTLREMVDPNVRIRIGDKRNHGMKFLLHLITVWLERVDHVRIEVDESRLVNGQLNMTGTLHLHQGDKTQELRTRSHLVIVNGVMKEITFEYD | 2.06 |
| DDEKEILRIAIEWSELVSNTGDEKTVEHLADPHVRIHYGDKDYVGRERMVEFVHRFKNLKLEIKDTDVQGEYIHVNGKMKFNGRTFDVEIVVFKIDGVWFEKSVEFK | 1.38 |
| DDEKEITHTLSEIWIHTVRTGDEDTATNLVDPHARLDYNGREFHGRELISELMIRHLTEWRITHIHIDHVRVINGRFEIHSHQDGHFDGVRRKVEVHIDIIIIDGVVKEIRIRVH | 1.17 |
| DDEKKHALEVVRKYFRAFLTGDEDESFELMDPRVKVDINGRDIHGWEEYRKWMEEIRIHDHRVKEEHFRVYDGRLIIIIRGELNGEINGRRFEFEFNIIIVVAKVDGQWRTESFKMEIH | 1.31 |
| DDEKREMVEMLKIFIHNFLTGDWRTMEKLLDPDARFIINGQTFHGREWVRHSLHVFLHQFEHIHHIVIHDIDLQGDKVNIDGKLDGTVNGKRRLLDSHWHLRVVNGRVKEIEIHIH | 2.12 |

| Sequence | protease stability score |
| --- | --- |
| DDEKRFTHEAIKTSEEVMKTGDERLMRELMDPNVRSEIDGRDVHGMDIITEWLSHIRIEDIKLRRITVIDGVITIRGEVYFEQGDKIVTFDVTIIYEKIDGRWLLRSLHVK | 1.53 |
| DDEKRWLEELWKDIQRADETGDEEHFLHLADPHVRFHVNGRDVHGMELVAHILLKWLNEIRIKDFRLKDMRMFENHLRVDGSIVLIVNGQEIETDMILRFEVVNGRIKDREIDIR | 1.37 |
| DDELKTTHKFAKEFVDQLTTGDWEWHDKLFDPDARMSMIIDGREVRLHGREELTRWHLKVFEDLGIERVHSRYEHMHVVDGQIHFRGVLEFNGQRREFHIDMRIVDGRMHEFHEIHN | 0.329 |
| DDENKFWKEFMDIWVRSLETGNEEELAKLIDPHARLHVNGVENHGREIVLKWFHHHLKHAGVDHRTFHDMRVFDGVNFIDGTLHVNGVTREIRLKVYVVNGVVESEEVRIH | 1.03 |
| DDENKQMEEAIWIWKYMVETGDERINHEFADPHARVDINGKEHHGREEIERFLIEFSEKVKNLRVEIEDFRSINGRVDVILRLTVNGKRVETRVHAIKVDGKWLIKEVRFH | 0.624 |
| DDEREEAKRAIEDLVRDLETGNWKHLHEFLDPNVRIRVGDKDIHGREEATHHLRRLHEKFKNLKVIIEHVDIVGNKIIEHGHIEIGDKSMEVEIIIIKINGRWYIKEIHIK | 1.6 |
| DDERRDTKLAIDLWVETWHTGDEQMFEDLADPHTRIIIGDKEHVGREEAVRYSSELIRRLGANHVDVTFRETRMYNGRIDVKGEINLHIGDKDHHREVHVYSRKIDGRWVLERIEFR | 1.3 |
| DDERRHTEKVLELWTRFLYTGDEHRMSELLDPNTQLRVGDKDLHGWHLFVHFISELIRKLGVDHLEVELKHADIINGRAELHVKFHFHTENHHTTINIIFFYEKIDGVWLIKSIEIK | 2.04 |
| DDESEHSMKVFRFWAEARETGDEDTLTRLLDPHARLIQGDKHIIGREEWTRIIKERREQYGVKHIHFHIQDMRIFNGRVHLKVHYEIKFDGQSVTIDSEIIITKVDGRWYFESETKR | 1.11 |
| DDESEKAEHIYELLTRLMLTGDEQIIHKLMDPNVRLDVDGQEYHGREEVVSAWRRWLKEMGVDHLELKSVRLIFFNGQLHIHINGEVRFNGRKHRVHIRLVLRKIDGVWHLEELEVEYK | 1.92 |
| DDETDRSEKVAQMFVDLLTTGDWERLRHLMDPHVRMDINGQESHGRENVFRFFQKIRERLGLDRFHIEVTHIDVQGDKALWHGTLNINGQEHEVIIRIDVVDGRWHEVRMEVR | 2.62 |
| DDETEHLEKSVRDLVTSIKTGNWEEFYKMFDPNMRVDINGQQYHGRENAVEMVRQLWERLGAKHVHLTEIRYYGDKLELIMHVHFDGRDKEEEYIAVKIDGRWLLTEVRFK | 2.08 |
| DDETEYAREASEMWVKLLITGDEEIREEYIDPHAKMDQGEYEYHGREQVSRFSKKLIDTMGVKHFDIKSIEIQGDKVILFMHEHFENRRVDLIFYSRKFDGRWHYRRMEVIHR | 0.543 |
| DDETHEYEEAMELWVKALTTGNEDLLKDLHDPHTLTRINGRTEHGRHTWVEIRRKLGVKHLHIETSRLIDGRVHLHARIHVGDKNLEIIVIIVKVNGRWLTSEINIH | 0.951 |
| DDFDRNIEKLMKDLLHNWRTGNEDEFLRLIDPNARLTVGDYESHGREEYARVLRELLEEMRLHQVHIRHVEYFDGQADIDIREDGFINGQRIILTTRIIVVKVNGRWVVKSHVIN | 0.967 |
| DDHDEELQRIVEIIFRHISTGNFDHLYKYLDPNVRMIIWIGDKNITAHGREHMSEVLHKLWKHLRIKDVDLHDVKSQGEKAIVDTHVHGIIDGKDTHIKTTLIVIIVDGRLKQMEVEVK | 2.59 |
| DDHDKLLQKLMRFWLWAFLTGDEDHFDEMADPNTRLSSIVNGRDIQLHGREQVNKHFKELRLHHFILRTWSVYDGRVEIDGQMDGEYDGRRIDTRVTIIIVIINGRSTREHLDFK | 0.261 |
| DDHDKLMQDLTSMFVRDLITGDEKSMDELLDPDVKVDINGQETHGRDHFLEILNKNLKEWRVKDVKIEHVEWYGNKAHIRMEVIGNWNGKEHSLDFELHLLIVNGQFKEIRIKIR | 1.5 |
| DDHEEEVLRLLHTVLRIMWTGDEDELHRLADPNMKMWINGRKFHGRETAIETLKRMVNEIRIHEIHVKDFDVIGEYAHVDTRVRGTINGKETILNERIIVLVIDGRIKSIRIDLK | 2.13 |
| DDHEHFHREIWRTWLELQLTGDPHRLERLADPHVRFVYGDKVFHGREKMSEHFERENRELGIDHVEVRIKDSRFIDGRVHHDSELIIRVDGRTYKHDVKVIIDKVDGRWNIQKVEIR | 1.07 |
| DDHEKDLTDMARRNYHWWKTGDFDRVIDLLDPTTRLIVGDKKFHGWDEFSHALELFRKQLRPNDSKLKREEVYGDKMVIHSHLHGTVDGKEVHHDVIFTFVIIDGRIHLIIIEPR | 0.516 |
| DDHEKIVQHLLEEIIEIWLTGNFEEHLKRFDPDMRLNVNGVEHHGRESNERWFNKQIERYKNATIHHRIESVDVQGDKVHSDGELIYIQGDKIIRTKIIVRLLVVNGRIKRIEIEMI | 1.31 |
| DDHEKLSEEHMRFIRHAIKTGDEETLKELADPDMRINVNGRLFHGWEHFFKIWEHIRRHLRFKDYDIHDFEIYGDKIHADTRVKSRVNGVERIITTEVLIMKVDGRWYNHEVRLH | 0.71 |
| DDHEKRLEEYMKHWFENLMTGNEERLHELADPNARFHLHFENHEVDLIGREDIIKWWREFLHRVKNIRHHLDHLEIQGEKSHLDMTLNIDGKEYRVRIIVVIVNGKIHKVIVDIR | 2.23 |
| DDHERDAERAIKELMHNFETGNEDFLNEMADPNMRVIINGKEHIGWENFRHHLRRVLHELRIKRIHIRQVRVQGEWVNVISEFIGEVDGREHRVETSYILLKVNGRWTLHSMYFE | 2.69 |
